Assay results taken from PMC3135172 (Cell, 2011).
Where no end group is shown, it is not given here.

Target: BPTF bromodomain (human)
Assay: ITC

Kd: 69 ± 1 µM
Binder: GKGLGK(Ac)GGAKR (not fully specified) [H4K12ac peptide]
